Experimental data reported in publication doi:10.1101/2023.03.13.532361.

Target: SLA dehydrogenase RlGabD from Rhizobium leguminosarum SRDI565 (Rhizobium leguminosarum SRDI565)
Test: SEC-MALS

Substance: SLA dehydrogenase RlGabD from Rhizobium leguminosarum SRDI565 (enzyme)
- stoichiometry N: 4
